Test results taken from the supplement of paper PMC10567573.

Test: protein stability index of a GFP-peptide fusion (GPS, HEK-293T) (PSI 1-6); higher = more stable
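Note: lentivirally expressed fusions sorted by FACS into six bins by GFP to DsRed ratio, PSI derived from sequencing read proportions per bin multiplied by bin number.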

B1: DVL3 WT (peptide)
chain: FCADNPSELPPPMERTGGIGDSRP
Question: With B1 as the protein, how does the protein stability index (parent: IOH21682_16, c terminus: a fixed tail appended) read?
Answer: The protein stability index was 4.54.

B2: DYRK1B WT (peptide)
chain: RFQDLVLRMLEYEPAARISPLGAL
Question: For B2, which protein stability index (parent: IOH14793_68, c terminus: a fixed tail appended) is on record?
Answer: Its protein stability index is 2.31.

B3: DVL3 WT (peptide)
chain: FPELGYSYGGGSASSQHSEGSRSS
Question: For B3, which protein stability index (parent: IOH21682_93, c terminus: a fixed tail appended) is on record?
Answer: Its protein stability index is 3.14.

B4: C2CD2L WT (peptide)
chain: LTLKVLRSSSCGDTELLGQATLPV
Question: For B4, which protein stability index (parent: IOH21460_59, c terminus: a fixed tail appended) is on record?
Answer: The protein stability index was 2.3.

B5: PCMTD2 WT (peptide)
chain: FFIRTSDSFDKFDFCEPSFVTGNC
Question: With B5 as the protein, how does the protein stability index (parent: IOH21782_22, c terminus: a fixed tail appended) read?
Answer: Its protein stability index is 2.15.

B6: KIAA0774 WT (peptide)
chain: FEDEVKRLGWQQQAELQELEERLQ
Question: For B6, which protein stability index (parent: IOH21722_11, c terminus: a fixed tail appended) is on record?
Answer: The protein stability index was 4.08.

B7: SOAT1 WT (peptide)
chain: PSNGRIDIKQLIAKKIKLTAEAEE
Question: With B7 as the protein, how does the protein stability index (parent: IOH22371_7, c terminus: a fixed tail appended) read?
Answer: Its protein stability index is 3.15.

B8: DVL3 WT (peptide)
chain: HPDPAPFCADNPSELPPPMERTGG
Question: For B8, which protein stability index (parent: IOH21682_15, c terminus: a fixed tail appended) is on record?
Answer: Its protein stability index is 2.73.

B9: C2CD2L WT (peptide)
chain: EPAGSLRELGVWRSLLRLRATRAG
Question: With B9 as the protein, how does the protein stability index (parent: IOH21460_10, c terminus: a fixed tail appended) read?
Answer: The protein stability index was 2.6.

B10: WDR88 WT (peptide)
chain: LLTITKAHSNAISNCCFTFSGHFL
Question: With B10 as the protein, how does the protein stability index (parent: IOH21600_45, c terminus: a fixed tail appended) read?
Answer: Its protein stability index is 3.1.

B11: PPP2R2B WT (peptide)
chain: PSNRSFFSEIISSISDVKFSHSGR
Question: With B11 as the protein, how does the protein stability index (parent: IOH22211_46, c terminus: a fixed tail appended) read?
Answer: The protein stability index was 2.33.

B12: SOAT1 WT (peptide)
chain: KSAAMLAVFAVSAVVHEYALAVCL
Question: With B12 as the protein, how does the protein stability index (parent: IOH22371_75, c terminus: a fixed tail appended) read?
Answer: Its protein stability index is 3.11.

B13: PPP2R2B WT (peptide)
chain: RNTKRDVTLEASRENSKPRAILKP
Question: Which protein stability index (parent: IOH22211_62, c terminus: a fixed tail appended) does the source give for B13 here?
Answer: Its protein stability index is 4.59.

B14: DVL3 WT (peptide)
chain: YNPHPGFPELGYSYGGGSASSQHS
Question: For B14, which protein stability index (parent: IOH21682_92, c terminus: a fixed tail appended) is on record?
Answer: Its protein stability index is 2.58.

B15: TSPAN10 WT (peptide)
chain: EGCGPPLRRWLRANLAASGGYAIA
Question: For B15, which protein stability index (parent: IOH21852_47, c terminus: a fixed tail appended) is on record?
Answer: Its protein stability index is 1.89.

B16: DVL3 WT (peptide)
chain: SDVVDWLYHNVEGFTDRREARKYA
Question: With B16 as the protein, how does the protein stability index (parent: IOH21682_75, c terminus: a fixed tail appended) read?
Answer: Its protein stability index is 2.98.

B17: PRPH WT (peptide)
chain: RTFGPPPSLSPGAFSYSSSSRFSS
Question: Which protein stability index (parent: IOH21924_4, c terminus: a fixed tail appended) does the source give for B17 here?
Answer: Its protein stability index is 3.3.

B18: BTBD1 WT (peptide)
chain: YGSIHGPTDYQVNIQIIEYEKKQT
Question: With B18 as the protein, how does the protein stability index (parent: IOH21551_62, c terminus: a fixed tail appended) read?
Answer: Its protein stability index is 2.54.

B19: SOAT1 WT (peptide)
chain: GVLILFLTFFAFLHCWLNAFAEML
Question: For B19, which protein stability index (parent: IOH22371_63, c terminus: a fixed tail appended) is on record?
Answer: The protein stability index was 2.73.

B20: BTBD1 WT (peptide)
chain: FVLGKGRGAAAAGGPQRIPAHRFV
Question: For B20, which protein stability index (parent: IOH21551_13, c terminus: a fixed tail appended) is on record?
Answer: Its protein stability index is 1.88.

B21: BTBD1 WT (peptide)
chain: TSAEIELPDVEPAAFLALLRFLYS
Question: Which protein stability index (parent: IOH21551_20, c terminus: a fixed tail appended) does the source give for B21 here?
Answer: The protein stability index was 2.

B22: LOC100129726 WT (peptide)
chain: VHTGCHKKLGPEARRPRTRWGKN
Question: With B22 as the protein, how does the protein stability index (parent: IOH21711_9, c terminus: native) read?
Answer: The protein stability index was 1.97.

B23: BTBD1 WT (peptide)
chain: IVGFGLYGSIHGPTDYQVNIQIIE
Question: Which protein stability index (parent: IOH21551_61, c terminus: a fixed tail appended) does the source give for B23 here?
Answer: The protein stability index was 3.17.

B24: SOAT1 WT (peptide)
chain: VYYIFERLCAPLFRNIKQEPFSAR
Question: For B24, which protein stability index (parent: IOH22371_57, c terminus: a fixed tail appended) is on record?
Answer: Its protein stability index is 2.19.

B25: IMPA1 WT (peptide)
chain: FIGEESVAAGEKSILTDNPTWIID
Question: With B25 as the protein, how does the protein stability index (parent: IOH21098_12, c terminus: a fixed tail appended) read?
Answer: Its protein stability index is 2.05.

B26: PRPH WT (peptide)
chain: DEIEFLKKLHEEELRDLQVSVESQ
Question: For B26, which protein stability index (parent: IOH21924_38, c terminus: a fixed tail appended) is on record?
Answer: The protein stability index was 4.78.

B27: LOC100129726 WT (peptide)
chain: AKAADSPTRNDLESGLGHFSLRVH
Question: For B27, which protein stability index (parent: IOH21711_5, c terminus: a fixed tail appended) is on record?
Answer: Its protein stability index is 3.12.
